The supplement of paper PMC10065799, “High-throughput profiling of sequence recognition by tyrosine kinases and SH2 domains using bacterial peptide display” (eLife, 2023)

Assays:
AncSZ = assay: phosphorylation enrichment, bacterial display (enrichment ratio); higher = better substrate or ligand; peptides without Tyr show the background
EPHB1 = EPHB1 (UniProt P54762); assay: as above
EPHB2 = EPHB2 (UniProt P29323); assay: as above
FGFR1 = FGFR1 (UniProt P11362); assay: as above
FGFR3 = FGFR3 (UniProt P22607); assay: as above
Fer (mouse) = assay: as above
Fes = Fes (UniProt P07332); assay: as above
Fyn = Fyn (UniProt P06241); assay: as above
Hck = Hck (UniProt P08631); assay: as above
Jak2 = Jak2 (UniProt O60674); assay: as above
MERTK = MERTK (UniProt Q12866); assay: as above
c-Abl (mouse) = assay: as above
c-Src = assay: as above
Grb2 SH2 = Grb2 SH2 (UniProt P62993); assay: SH2 binding enrichment of the phosphorylated peptide, bacterial display (enrichment ratio); higher = better substrate or ligand; peptides without Tyr show the background
SHP2-C SH2 = assay: as above
c-Src SH2 = assay: as above
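Wherever SH2 binding enrichment of the phosphorylated peptide, bacterial display is given: peptide library displayed on the E. coli surface as eCPX fusions, selected cells deep-sequenced, score is each peptide's frequency after selection divided by its frequency in the input.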
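Wherever phosphorylation enrichment, bacterial display is given: 11-residue human phosphosite peptides and single-mutation variants displayed on the E. coli surface, counted by deep sequencing, each peptide's frequency after selection divided by its frequency in the unselected input library; frequency after pTyr selection over input frequency; kinase dosed for 20-30% of maximal phosphorylation in three min.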

Chain of Fes (P07332 whole entry, looked up): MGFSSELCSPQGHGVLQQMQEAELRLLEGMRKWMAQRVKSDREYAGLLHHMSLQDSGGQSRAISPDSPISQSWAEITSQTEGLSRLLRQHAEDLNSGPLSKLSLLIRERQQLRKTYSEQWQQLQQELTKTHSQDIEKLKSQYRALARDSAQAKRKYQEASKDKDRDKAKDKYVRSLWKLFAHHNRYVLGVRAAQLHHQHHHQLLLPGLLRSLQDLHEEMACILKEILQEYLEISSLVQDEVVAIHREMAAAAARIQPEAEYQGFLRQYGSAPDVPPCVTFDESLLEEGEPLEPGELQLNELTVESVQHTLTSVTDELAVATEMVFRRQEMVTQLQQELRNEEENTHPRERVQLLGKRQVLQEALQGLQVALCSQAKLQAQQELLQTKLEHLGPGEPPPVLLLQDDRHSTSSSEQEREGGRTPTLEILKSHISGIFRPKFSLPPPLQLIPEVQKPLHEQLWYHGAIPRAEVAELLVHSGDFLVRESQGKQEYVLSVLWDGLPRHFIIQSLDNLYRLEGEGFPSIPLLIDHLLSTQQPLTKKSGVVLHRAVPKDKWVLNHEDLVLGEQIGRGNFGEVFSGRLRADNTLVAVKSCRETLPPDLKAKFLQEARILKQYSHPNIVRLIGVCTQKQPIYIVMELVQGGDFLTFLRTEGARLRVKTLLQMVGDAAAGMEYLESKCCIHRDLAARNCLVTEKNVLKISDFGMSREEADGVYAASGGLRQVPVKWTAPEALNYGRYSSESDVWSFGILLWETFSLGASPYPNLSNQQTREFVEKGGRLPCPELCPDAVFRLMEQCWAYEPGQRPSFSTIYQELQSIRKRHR
Chain of FGFR1 (P11362 whole entry, looked up): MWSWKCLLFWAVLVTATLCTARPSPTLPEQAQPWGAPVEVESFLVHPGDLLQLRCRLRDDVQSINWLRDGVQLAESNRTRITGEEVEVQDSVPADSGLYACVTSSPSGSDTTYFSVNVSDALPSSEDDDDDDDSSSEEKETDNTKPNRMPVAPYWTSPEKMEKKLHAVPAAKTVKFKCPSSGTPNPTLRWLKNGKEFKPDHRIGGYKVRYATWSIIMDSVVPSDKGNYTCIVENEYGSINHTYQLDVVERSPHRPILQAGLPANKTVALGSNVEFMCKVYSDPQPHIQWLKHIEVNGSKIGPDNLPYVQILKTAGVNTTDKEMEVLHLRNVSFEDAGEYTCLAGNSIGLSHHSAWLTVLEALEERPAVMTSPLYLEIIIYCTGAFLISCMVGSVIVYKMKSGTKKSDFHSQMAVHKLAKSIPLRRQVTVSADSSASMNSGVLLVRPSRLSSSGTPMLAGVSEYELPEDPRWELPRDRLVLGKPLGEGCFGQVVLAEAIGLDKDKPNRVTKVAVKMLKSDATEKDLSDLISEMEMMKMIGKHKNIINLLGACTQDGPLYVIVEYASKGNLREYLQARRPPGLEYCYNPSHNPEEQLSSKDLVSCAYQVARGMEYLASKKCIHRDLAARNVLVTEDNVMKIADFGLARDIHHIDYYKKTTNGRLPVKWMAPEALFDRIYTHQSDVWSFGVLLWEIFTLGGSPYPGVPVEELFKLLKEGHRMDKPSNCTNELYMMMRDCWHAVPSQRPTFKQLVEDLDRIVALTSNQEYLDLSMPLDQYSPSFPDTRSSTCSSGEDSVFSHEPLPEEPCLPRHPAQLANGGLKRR
Chain of Fyn (P06241 whole entry, looked up): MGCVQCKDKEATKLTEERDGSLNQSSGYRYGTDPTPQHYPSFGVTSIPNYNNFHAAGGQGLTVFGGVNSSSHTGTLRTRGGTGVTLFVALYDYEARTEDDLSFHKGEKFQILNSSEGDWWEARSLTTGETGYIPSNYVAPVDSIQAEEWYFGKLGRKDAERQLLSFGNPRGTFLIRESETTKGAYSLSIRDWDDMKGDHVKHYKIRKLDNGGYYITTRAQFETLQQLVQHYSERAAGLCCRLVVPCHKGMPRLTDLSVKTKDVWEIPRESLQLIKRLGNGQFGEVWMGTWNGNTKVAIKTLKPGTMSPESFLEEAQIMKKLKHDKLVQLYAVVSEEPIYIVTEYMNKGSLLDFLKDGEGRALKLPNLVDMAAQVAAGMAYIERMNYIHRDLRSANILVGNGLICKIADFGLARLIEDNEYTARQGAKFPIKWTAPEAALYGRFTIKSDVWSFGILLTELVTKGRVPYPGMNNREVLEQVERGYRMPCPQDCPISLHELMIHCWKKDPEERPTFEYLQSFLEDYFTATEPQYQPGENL
Chain of Hck (P08631 whole entry, looked up): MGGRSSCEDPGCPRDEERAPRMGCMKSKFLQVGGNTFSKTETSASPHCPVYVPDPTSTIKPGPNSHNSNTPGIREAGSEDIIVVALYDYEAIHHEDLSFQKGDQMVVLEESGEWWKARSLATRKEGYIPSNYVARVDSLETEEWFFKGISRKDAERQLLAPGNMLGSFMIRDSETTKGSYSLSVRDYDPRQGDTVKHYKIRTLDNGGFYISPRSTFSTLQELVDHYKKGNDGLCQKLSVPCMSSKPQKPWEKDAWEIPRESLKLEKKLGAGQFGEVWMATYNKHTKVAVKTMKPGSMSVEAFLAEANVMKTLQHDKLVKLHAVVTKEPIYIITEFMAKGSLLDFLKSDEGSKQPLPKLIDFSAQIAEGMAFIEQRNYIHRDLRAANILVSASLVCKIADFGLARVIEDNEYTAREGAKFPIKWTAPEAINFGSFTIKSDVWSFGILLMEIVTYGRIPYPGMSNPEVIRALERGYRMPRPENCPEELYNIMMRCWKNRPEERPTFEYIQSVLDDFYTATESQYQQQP
Chain of MERTK (Q12866 whole entry, looked up): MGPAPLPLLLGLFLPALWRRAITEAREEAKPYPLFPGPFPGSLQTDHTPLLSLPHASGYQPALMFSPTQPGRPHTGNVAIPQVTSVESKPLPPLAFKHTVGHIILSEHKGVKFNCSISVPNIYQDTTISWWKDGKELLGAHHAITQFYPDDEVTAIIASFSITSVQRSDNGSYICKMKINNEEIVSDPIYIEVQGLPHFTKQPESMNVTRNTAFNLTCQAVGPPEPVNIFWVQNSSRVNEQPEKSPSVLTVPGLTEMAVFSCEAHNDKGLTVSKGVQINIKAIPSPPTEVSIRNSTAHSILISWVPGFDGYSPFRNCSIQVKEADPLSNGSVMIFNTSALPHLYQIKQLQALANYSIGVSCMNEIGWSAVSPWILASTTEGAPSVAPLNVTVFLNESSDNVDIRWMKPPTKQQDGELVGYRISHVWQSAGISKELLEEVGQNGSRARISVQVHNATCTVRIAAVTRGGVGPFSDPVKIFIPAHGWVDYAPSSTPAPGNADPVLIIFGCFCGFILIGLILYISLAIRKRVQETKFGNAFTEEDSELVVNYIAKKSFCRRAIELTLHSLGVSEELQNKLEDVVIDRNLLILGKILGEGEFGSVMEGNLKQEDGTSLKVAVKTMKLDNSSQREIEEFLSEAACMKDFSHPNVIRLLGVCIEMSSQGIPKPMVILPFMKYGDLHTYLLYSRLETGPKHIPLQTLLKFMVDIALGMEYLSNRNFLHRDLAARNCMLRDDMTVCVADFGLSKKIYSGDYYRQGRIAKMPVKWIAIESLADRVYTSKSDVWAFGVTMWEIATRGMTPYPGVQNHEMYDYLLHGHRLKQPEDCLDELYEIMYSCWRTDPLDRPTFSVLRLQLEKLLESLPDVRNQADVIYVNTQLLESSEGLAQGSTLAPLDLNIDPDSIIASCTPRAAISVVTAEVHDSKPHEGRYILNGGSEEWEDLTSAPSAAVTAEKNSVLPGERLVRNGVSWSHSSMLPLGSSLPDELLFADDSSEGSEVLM
Chain of Grb2 SH2 (P62993 whole entry, looked up): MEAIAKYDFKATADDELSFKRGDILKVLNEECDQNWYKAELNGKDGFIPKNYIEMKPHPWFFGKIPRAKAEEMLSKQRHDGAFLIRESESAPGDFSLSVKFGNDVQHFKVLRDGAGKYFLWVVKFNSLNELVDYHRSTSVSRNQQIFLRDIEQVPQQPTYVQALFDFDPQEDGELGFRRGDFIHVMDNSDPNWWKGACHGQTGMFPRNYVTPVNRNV
Chain of FGFR3 (P22607 whole entry, looked up): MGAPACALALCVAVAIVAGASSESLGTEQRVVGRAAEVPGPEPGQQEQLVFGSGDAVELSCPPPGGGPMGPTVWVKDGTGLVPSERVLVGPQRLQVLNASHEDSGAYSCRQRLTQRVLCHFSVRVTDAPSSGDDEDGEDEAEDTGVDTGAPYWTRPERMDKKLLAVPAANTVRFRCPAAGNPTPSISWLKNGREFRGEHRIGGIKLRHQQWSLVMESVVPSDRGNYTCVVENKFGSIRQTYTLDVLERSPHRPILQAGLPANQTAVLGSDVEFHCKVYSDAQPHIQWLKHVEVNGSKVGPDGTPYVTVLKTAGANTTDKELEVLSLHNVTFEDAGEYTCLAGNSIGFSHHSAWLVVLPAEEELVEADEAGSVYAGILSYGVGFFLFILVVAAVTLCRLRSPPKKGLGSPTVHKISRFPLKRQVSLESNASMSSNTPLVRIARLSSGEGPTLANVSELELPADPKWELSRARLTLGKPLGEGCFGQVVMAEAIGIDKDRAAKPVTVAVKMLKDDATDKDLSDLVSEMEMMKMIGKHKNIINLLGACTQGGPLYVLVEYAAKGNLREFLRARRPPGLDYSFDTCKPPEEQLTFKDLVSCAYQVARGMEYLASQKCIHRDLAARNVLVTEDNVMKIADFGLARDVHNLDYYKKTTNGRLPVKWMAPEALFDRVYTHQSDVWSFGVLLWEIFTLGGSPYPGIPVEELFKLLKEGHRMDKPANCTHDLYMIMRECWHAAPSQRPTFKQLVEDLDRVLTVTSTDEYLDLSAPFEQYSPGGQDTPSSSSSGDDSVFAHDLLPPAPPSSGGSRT

Row | Sequence | phosphorylation enrichment (AncSZ) | phosphorylation enrichment (EPHB1) | phosphorylation enrichment (EPHB2) | phosphorylation enrichment (FGFR1) | phosphorylation enrichment (FGFR3) | phosphorylation enrichment (Fer (mouse)) | phosphorylation enrichment (Fes) | phosphorylation enrichment (Fyn) | phosphorylation enrichment (Hck) | phosphorylation enrichment (Jak2) | phosphorylation enrichment (MERTK) | phosphorylation enrichment (c-Abl (mouse)) | phosphorylation enrichment (c-Src) | SH2 binding enrichment (Grb2 SH2) | SH2 binding enrichment (SHP2-C SH2) | SH2 binding enrichment (c-Src SH2)
1 | CCNHPYLINGA [CHD7_Y1256] | 0.651 | 0.352 | 0.495 | 0.443 | 0.552 | 0.419 | 0.851 | 0.57 | 0.519 | 0.641 | 0.461 | 0.538 | 2.72 | 0.804 | 0.704 | 0.541
2 | CDFKKYGKGLR [ZNF445_Y433_Y428C_YF] | 0.647 | 0.409 | 0.413 | 0.432 | 0.549 | 0.31 | 0.808 | 0.479 | 0.357 | 0.718 | 0.396 | 0.64 | 0.441 | 1.06 | 0.934 | 0.618
3 | CEDGTYSPEIS [PTDSS1_Y424] | 1.2 | 0.649 | 0.578 | 0.5 | 0.824 | 0.589 | 1.33 | 0.512 | 0.595 | 1.33 | 0.486 | 0.838 | 0.663 | 0.835 | 1.13 | 0.519
4 | CEHRGYLFLAI [TEK_Y897_YF] | 0.951 | 0.502 | 0.69 | 0.545 | 0.628 | 0.508 | 0.906 | 0.443 | 0.45 | 1.01 | 0.37 | 0.813 | 0.496 | 1.49 | 1.19 | 0.767
5 | CERLPYDANKW [FLT1_Y815_S818N] | 1.11 | 0.626 | 0.602 | 0.422 | 0.817 | 0.615 | 1.16 | 0.506 | 0.43 | 1.01 | 0.415 | 0.804 | 0.477 | 0.619 | 0.754 | 0.492
6 | CFTGKYTLPPG [HSPB1_Y142_R140G] | 1.09 | 0.562 | 0.649 | 0.447 | 0.75 | 0.521 | 1.25 | 0.595 | 0.519 | 0.908 | 0.767 | 0.833 | 0.429 | 0.592 | 0.377 | 0.585
7 | CFTRKYTLPPG [HSPB1_Y142] | 0.763 | 0.546 | 0.459 | 0.495 | 0.604 | 0.459 | 1.06 | 0.443 | 0.457 | 0.787 | 0.42 | 0.678 | 0.452 | 0.683 | 0.601 | 0.477
8 | CLAKMYYSAVE [CP_Y539_D544E] | 1.04 | 0.863 | 0.901 | 0.861 | 0.885 | 1.35 | 1.19 | 0.563 | 0.606 | 0.831 | 2.82 | 0.651 | 0.725 | 0.828 | 0.971 | 2.57
9 | CSPLLYRVIMS [OR8D4_Y132] | 1.22 | 0.691 | 0.695 | 0.611 | 0.75 | 0.577 | 1.25 | 0.527 | 0.6 | 0.992 | 0.507 | 0.851 | 0.449 | 0.825 | 0.571 | 0.393
10 | CSRHFYQLTKL [AR_Y858_R856H] | 1.06 | 0.501 | 0.576 | 0.705 | 0.662 | 0.615 | 1.17 | 0.444 | 0.464 | 0.969 | 0.432 | 0.763 | 0.422 | 1.04 | 0.821 | 0.97
11 | CTLLPYFSARV [DGKE_Y269_YF] | 0.987 | 0.613 | 0.615 | 0.518 | 0.736 | 0.515 | 1.11 | 0.453 | 0.508 | 1.09 | 0.424 | 1.11 | 0.43 | 0.791 | 0.711 | 0.523
12 | CTTIHQNFMCN [TP53_Y234_Y234Q_YF] | 0.9 | 0.421 | 0.497 | 0.459 | 0.614 | 0.421 | 0.855 | 0.435 | 0.397 | 0.575 | 0.377 | 0.497 | 0.391 | 1.2 | 1.02 | 1.12
13 | CTTIHYNFMCN [TP53_Y234_Y236F] | 0.861 | 0.428 | 0.485 | 0.509 | 0.645 | 0.516 | 0.923 | 0.436 | 0.456 | 0.824 | 0.405 | 0.661 | 0.487 | 1.8 | 1.93 | 1.84
14 | CTTIHYNFTCN [TP53_Y234_M237T_YF] | 0.797 | 0.448 | 0.6 | 0.496 | 0.593 | 0.426 | 0.866 | 0.443 | 0.414 | 0.704 | 0.42 | 0.634 | 0.441 | 1.96 | 1.83 | 1.67
15 | CVAARYMDMKG [WFIKKN2_Y93_V96M] | 0.755 | 0.394 | 0.428 | 0.36 | 0.637 | 0.431 | 0.984 | 0.439 | 0.471 | 0.654 | 0.446 | 0.542 | 0.39 | 0.95 | 0.765 | 1.39
16 | DALDNYVIRGV [PCCA_Y473] | 0.849 | 0.512 | 0.583 | 0.486 | 0.506 | 0.481 | 0.842 | 0.457 | 0.46 | 0.846 | 0.408 | 0.633 | 0.504 | 0.649 | 0.556 | 0.453
17 | DAVAVCHGKIS [SH2D1A_Y7_Y7C] | 0.658 | 0.387 | 0.471 | 0.467 | 0.628 | 0.467 | 0.745 | 0.472 | 0.458 | 0.774 | 0.403 | 0.59 | 0.406 | 0.71 | 0.539 | 0.536
